± gives the half width of the 95% confidence interval.
Columns and labels:
[1] = folding stability dG unfold from trypsin proteolysis; higher = more stable
Procedure, shortened: (§1)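 Sequencing followed digestion of designed mini-proteins with trypsin and chymotrypsin, each at 11 concentrations in threefold dilutions together with a no-protease condition. The mini-proteins were under 80 residues, had no cysteine, sat in a PA-tagged cDNA display construct, and were kept only if AlphaFold2 dimer inter-PAE was above 15. From the counts, Bayesian fitting gave K50, and unfolding free energy was derived against a sequence-predicted unfolded-state K50 and a shared folded-state K50, per protease or combined.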

[2] = folding stability dG unfold from chymotrypsin proteolysis; higher = more stable
Procedure, shortened: as §1

[3] = folding stability dG unfold (combined trypsin and chymotrypsin); higher = more stable
Procedure, shortened: as §1

Sequence	folding stability dG unfold [1]	folding stability dG unfold [2]	folding stability dG unfold [3]
SAGGSAGGSPSVLDQVKRMIQDRIQERFGLPPGYTVQVTIDVEIDDGGIRIKKIKAEIQPPDNSAGGSAGGS [r12_481_TrROS]	2.12 ± 0.095 kcal/mol	2.42 ± 0.054 kcal/mol	2.37 ± 0.17 kcal/mol
SMKELVKRIAERFPNFKVKIKPEKTGGKKYRTVRIENPDSGRDMEIVFTKNGDIQIEMPNGRRIPLEDILSA [r9_1176_TrROS]	1.46 ± 0.018 kcal/mol	1.1 ± 0.077 kcal/mol	1.36 ± 0.059 kcal/mol
SAGGSAGGSAGGPRPLRRELRIRRRFRFRVLGLEEGEPRPREFEVEVELVLVETRGPGESAGGSAGGSAGGS [r10_118_TrMRF]	2.65 ± 0.082 kcal/mol	4.31 ± 0.093 kcal/mol	3.84 ± 0.21 kcal/mol
SAGGSAGGSAGGPVRIVMKPSDIEYLLEKFGVEPLEIEEVEEDYVVVTITPEALKEAGLGSAGGSAGGSAGG [r7_587_TrMRF]	1.1 ± 0.065 kcal/mol	0.737 ± 0.049 kcal/mol	1.01 ± 0.18 kcal/mol
SAGGSAGGSAGGSQDLVKITIKLPGGEEKEITTPAEEIDKAIKELGIKKEDVEILEITEVSAGGSAGGSAGG [r7_211_JUSTAS]	1.13 ± 0.093 kcal/mol	1.56 ± 0.051 kcal/mol	1.34 ± 0.24 kcal/mol
SAGGSAGGSAMSVTATVPEKPVTLTYIPPNTVTKTVIDPSTGTTTTTEVNLPPGVVPASLLLSAGGSAGGSA [r18_59_JUSTAS]	0.313 ± 0.05 kcal/mol	-0.191 ± 0.13 kcal/mol	0.14 ± 0.045 kcal/mol
SAGGSAGGSAGPLKIKKLELRKLPDGFVEMTAEFEGPENYTVRLIVRKDDPNKLVLEVFPSAGGSAGGSAGG [r11_618_TrROS_Hall]	2.07 ± 0.095 kcal/mol	2.98 ± 0.057 kcal/mol	2.69 ± 0.16 kcal/mol
SAGGSAGGSAGGSYIIVQFPADEIKEALPPGFEIKSIERSPKNGWVMVAIRYPKDGKPISAGGSAGGSAGGS [r4_435_TrROS]	1.04 ± 0.038 kcal/mol	0.416 ± 0.17 kcal/mol	0.818 ± 0.2 kcal/mol
SAGGSMVKLKVTSVSREGNYLTVTAELGNLIVEIRFDEGTDRFEVKVSEKPLVLGEEEIEELAKASSAGGSA [r2_482_TrMRF]	1.52 ± 0.064 kcal/mol	2.38 ± 0.043 kcal/mol	2.08 ± 0.072 kcal/mol
SAGGSAGGSAWGWISFNFEFLMFNPDGMFMPFRMQIDIRVEVKPEPKPKPKPKRDPNGKWKSAGGSAGGSAG [r3_252_TrROS]	1.91 ± 0.034 kcal/mol	2.8 ± 0.082 kcal/mol	2.65 ± 0.15 kcal/mol
SAGGSQRFRITELVVPEDDGNLFIRVRGPNGKSMFMPASDIEKARKNGKEIEFPFPNGQPFEVEIISAGGSA [r2_301_TrROS]	-0.34 ± 0.44 kcal/mol	-0.461 ± 0.66 kcal/mol	-0.411 ± 0.33 kcal/mol
SAGGSALTLNDKSLIPKPFPKKKAIVDVAVPLPPNLTLEEALEVAEAIANNLLKAGKIDEATVAIYSAGGSA [r15_450_TrMRF]	-0.0583 ± 0.11 kcal/mol	0.151 ± 0.15 kcal/mol	0.108 ± 0.091 kcal/mol
SAGGSAGGSAPPWTRVLGLGTFPPGVPDLPVEVPGGNVYALFTPTEDGSVQVLIVDLIPPLSAGGSAGGSAG [r3_464_TrMRF]	0.472 ± 0.1 kcal/mol	0.965 ± 0.21 kcal/mol	0.773 ± 0.17 kcal/mol
SAGGSAGGSAGMPEKVTLTFERSSEVFDPKLGKWRTLPSTEVVEFDSEEEAEELKEKLGLSAGGSAGGSAGG [r11_984_JUSTAS]	-0.506 ± 0.55 kcal/mol	0.575 ± 0.36 kcal/mol	0.123 ± 0.31 kcal/mol
SAGGSAGGSAGGTLEFTFPGEGNLLAKVRIDLGESGNVRIDVYIYDGDTLLAKATFTLNLSAGGSAGGSAGG [r7_79_TrMRF]	4.55 ± 0.12 kcal/mol	5.46 ± 0.11 kcal/mol	5.48 ± 0.13 kcal/mol
SEFELKIEEEEDPATGVLRVTVTFNTSLEDAKEKLKELLKESGLNAVIKSVEEKKVGPEVTITFEIEIPPSA [r9_164_JUSTAS]	2.71 ± 0.065 kcal/mol	3.27 ± 0.052 kcal/mol	3.05 ± 0.057 kcal/mol
SAKLPEGAVVVIEDIEEKEVNGKKYKTIKISVYDKKNKGKLIAETEIVVENGKIVEKKVKVKKVSKEELSAG [r14_651_TrROS_Hall]	0.887 ± 0.027 kcal/mol	2.05 ± 0.14 kcal/mol	1.61 ± 0.14 kcal/mol
SAGGSAGGSAGGSMTVTLSREELLRLLGVPPGVPIPESVLAKIKSIETLPDGSVTVTIGSAGGSAGGSAGGS [r4_369_JUSTAS]	1.98 ± 0.027 kcal/mol	3.118 ± 0.027 kcal/mol	2.74 ± 0.11 kcal/mol
SAGGSAGGSAGGMELELTFATPEQAVEYAERFERLGYEVEVEYYPETGLVRVRVRLYPEESAGGSAGGSAGG [r7_623_TrMRF]	3.97 ± 0.11 kcal/mol	3.6 ± 0.072 kcal/mol	3.76 ± 0.074 kcal/mol
SAGGLLPALLAPGFRKPPELPLVVVEAPIEEAVALAKENPSLGVLLVRVGGKLYLIDPKTGKVAPLGSAGGS [r16_214_TrMRF]	0.767 ± 0.018 kcal/mol	1.6 ± 0.033 kcal/mol	1.32 ± 0.056 kcal/mol
SAGGSAGGSASSSSSIKFLSEEEIKLPDGTPVKVKIYKDPSNNKEYLYLPESKVWLPISKISAGGSAGGSAG [r3_181_JUSTAS]	1.41 ± 0.033 kcal/mol	1.74 ± 0.037 kcal/mol	1.67 ± 0.1 kcal/mol

Sequence	folding stability dG unfold [1]	folding stability dG unfold [2]	folding stability dG unfold [3]
SAGGSAGMPLVTAPVTRDPNSDVVTLTVYDPRTGETHTYTSPGSVEEAVEAFREATGLPISEVVLESAGGSA [r15_101_JUSTAS]	1.45 ± 0.078 kcal/mol	1.44 ± 0.057 kcal/mol	1.51 ± 0.099 kcal/mol
SAGGMEIKIEKEGNKIKITIKNENGEIEEFEITLKDGKKYRIIIDKDNPNTIYIVDEKTGKTIVLKASAGGS [r16_198_TrROS_Hall]	4.6 ± 0.64 kcal/mol	4.55 ± 0.11 kcal/mol	4.71 ± 0.3 kcal/mol
SAGGSAGGSAGGMTITIKVPPNMTEEQLRELARELARKLGLEDVEVRIERREDGTVRITFSAGGSAGGSAGG [r7_810_TrROS_Hall]	4.91 ± 0.2 kcal/mol	4.83 ± 0.12 kcal/mol	4.85 ± 0.15 kcal/mol
SAGGMTLITIEHPDGEVIEFELPGATEEEAEAIAEEIAKRHDPGKVKVTFEKVPEKGVDPTKPVAVKSAGGS [r8_167_JUSTAS]	-0.128 ± 0.073 kcal/mol	1.39 ± 0.038 kcal/mol	0.917 ± 0.099 kcal/mol
SAGEVELEVPIEALKKLPNLEGATVRVTVKLNENGELEITIEVEKAPEPPLTEEEKKKLLEEEEKKKKSAGG [r19_313_TrROS_Hall]	-0.203 ± 0.63 kcal/mol	1.31 ± 0.31 kcal/mol	1.06 ± 0.48 kcal/mol
SAGGSAGGSAGGSKTYRIYFKDNNKVITVKSKEDLKAALEKAGYTISEEDLDKIVKIEPSAGGSAGGSAGGS [r4_104_TrROS_Hall]	1.69 ± 0.046 kcal/mol	1.81 ± 0.07 kcal/mol	1.8 ± 0.087 kcal/mol
SMKPGAEITIEPFPDGMYKITLPDGRERIFSPNGIAIEITPNKIKIEMFHPGKPIMEMEVEIPPPDPNDPSA [r9_901_TrROS]	0.912 ± 0.19 kcal/mol	0.771 ± 0.16 kcal/mol	0.987 ± 0.43 kcal/mol
SAMKAEVYILVYDKNGKLIAKIPIKAEEVLEDPEKFLETVKTVVEEFSGIGVKLKIYFPSTGKEVEIEASAG [r14_972_TrMRF]	4.2 ± 0.65 kcal/mol	3.35 ± 0.045 kcal/mol	3.6 ± 0.23 kcal/mol
SAGGSAGGSMEVTVTPLPDGSLLVTVTVTTSSTPVPVELRFPPSASLEEIRAAAEARAAEVAASAGGSAGGS [r12_69_JUSTAS]	0.883 ± 0.029 kcal/mol	1.73 ± 0.025 kcal/mol	1.57 ± 0.047 kcal/mol
SAGGSAGGGMSMEELKTVDYPLVVTVPLPDGSTVTVSAKVPAEDLDKAIPEVEERAKALAEEGASAGGSAGG [r6_903_JUSTAS]	-0.194 ± 0.053 kcal/mol	1.26 ± 0.038 kcal/mol	0.843 ± 0.059 kcal/mol
MRITLEHPDIKRLTIEFRPMPDGYFRMDIKVERPDGKPVPIPFPMRYEDGKMTPEMMEQMIDEAVEEALADS [r1_124_TrROS]	0.608 ± 0.077 kcal/mol	0.617 ± 0.2 kcal/mol	0.689 ± 0.21 kcal/mol
SAGGSAGGSAGGSKELTVLVVEKNEDGTLTVRKFKIELKDGELKIVEEEEKTVPLEELKSAGGSAGGSAGGS [r4_389_TrROS_Hall]	1.41 ± 0.074 kcal/mol	2.42 ± 0.037 kcal/mol	2.04 ± 0.12 kcal/mol
SATFTLPDGREVEVVSVEYDPETNTVTVLVRDRETGELYVFTFERLPDGEWRIVSRERVRVEPGETVLVSAG [r14_13_TrROS_Hall]	2.02 ± 0.025 kcal/mol	3.235 ± 0.022 kcal/mol	2.94 ± 0.07 kcal/mol
SMFRIRFKDGSEFDIELNEDGELTITNKNGKKITLTFKTKEEALKAAEELKKKYPNMKVEIEEVSPEELKSA [r9_1206_TrROS_Hall]	2.6 ± 0.059 kcal/mol	3.504 ± 0.016 kcal/mol	3.13 ± 0.12 kcal/mol
SAGGSAGGSAMTVLVMEIKIELRVNEDGSLELRMEIEIKPVEPITLEELAEKLGLSKEELLSAGGSAGGSAG [r3_338_TrROS_Hall]	3.28 ± 0.12 kcal/mol	2.91 ± 0.085 kcal/mol	3.03 ± 0.14 kcal/mol
SAGGSAGGSAGGKVKIVSVSYDPETGKLTVEVEIPNPKKLLTVTTDNPNIPAEEIAKKLASAGGSAGGSAGG [r7_833_TrMRF]	0.453 ± 0.091 kcal/mol	0.058 ± 0.056 kcal/mol	0.362 ± 0.15 kcal/mol
SAGGSAGGSAGGKMLLIKITTKDGREFTLEISEEEAKKLAEELKKKFPNQKIEVEIVPLKSAGGSAGGSAGG [r7_349_TrROS_Hall]	3.21 ± 0.18 kcal/mol	3.16 ± 0.073 kcal/mol	3.21 ± 0.14 kcal/mol
SAGGSAGGPKEKKWYVMVHITWRDDGKERPRHFMFKSPEQVIEALEEQLPPDNIEIDVAVFPYKSAGGSAGG [r6_114_TrROS]	1.63 ± 0.034 kcal/mol	2.95 ± 0.053 kcal/mol	2.33 ± 0.086 kcal/mol
SAGNFNIKEQKETDGRRVIEIPMPGSGHEITIVFERNPDGPRKININMNGPMADYLREALPGIDRVEIISAG [r5_933_TrROS]	0.187 ± 0.31 kcal/mol	0.275 ± 0.26 kcal/mol	0.213 ± 0.22 kcal/mol
SAGGPGYNINIDVKIYPDPNDNHFVIEVKITIMPMEPDPDDGGWKQRSRTVPQEILLPPGESAEDIFSAGGS [r8_323_TrROS]	3.19 ± 0.17 kcal/mol	1.86 ± 0.1 kcal/mol	2.62 ± 0.13 kcal/mol
SAGKPESFSIEAPPIAPPEFPLGGSYRTLPNGEVLVLITLPDGTVLVLPSLDELRELRESGLPIDISPSSAG [r5_42_TrMRF]	0.959 ± 0.017 kcal/mol	1.17 ± 0.045 kcal/mol	1.07 ± 0.045 kcal/mol

— the supplement of paper PMC12764529
